Each block holds one molecule with its values, some of them ahead of it.
Columns and labels:
[1] = target: T1, His-TEV LRRC4B; assay: ELISA; captured by His-TEV LRRC4B, detected by HRP-conjugated C-A5-Ab
T1 sequence (Q9NT99 whole entry, species assumed, looked up): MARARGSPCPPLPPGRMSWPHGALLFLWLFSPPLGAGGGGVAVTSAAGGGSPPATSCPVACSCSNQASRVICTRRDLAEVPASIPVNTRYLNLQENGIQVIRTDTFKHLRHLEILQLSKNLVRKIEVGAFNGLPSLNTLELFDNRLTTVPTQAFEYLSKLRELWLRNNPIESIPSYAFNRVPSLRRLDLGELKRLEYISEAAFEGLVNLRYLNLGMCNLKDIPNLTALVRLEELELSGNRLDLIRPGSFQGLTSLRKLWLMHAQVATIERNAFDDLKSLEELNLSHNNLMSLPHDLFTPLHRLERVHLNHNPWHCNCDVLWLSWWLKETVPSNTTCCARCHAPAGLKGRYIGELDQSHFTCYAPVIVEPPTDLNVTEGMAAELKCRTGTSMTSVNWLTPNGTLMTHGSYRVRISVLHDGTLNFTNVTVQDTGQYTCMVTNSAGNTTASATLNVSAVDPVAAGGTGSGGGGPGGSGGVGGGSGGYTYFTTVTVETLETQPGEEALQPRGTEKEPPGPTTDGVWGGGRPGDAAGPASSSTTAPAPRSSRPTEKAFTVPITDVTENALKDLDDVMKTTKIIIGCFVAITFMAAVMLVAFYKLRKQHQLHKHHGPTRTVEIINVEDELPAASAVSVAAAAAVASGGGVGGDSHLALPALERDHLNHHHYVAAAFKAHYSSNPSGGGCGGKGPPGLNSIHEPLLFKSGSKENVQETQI

[2] = target: T1, His-TEV LRRC4B; assay: ELISA; competition: LRRC4B-PTPRF complex in the presence of FAM19A5; captured by His-TEV LRRC4B, detected by HRP-conjugated anti-human IgG Fc
[3] = target: T2, recombinant FAM19A5 (family with sequence similarity 19 member A5) (UniProt Q7Z5A7 44-132); assay: ELISA; competition: FAM19A5 captured by LRRC4B(36–576)-hFc in the presence of inhibitor, detected by HRP-conjugated C-A5-Ab; details: both partners purified
T2 construct: FAM19A5 (TAFA5), secretory protein; also called TAFA5; WT FAM19A5; source: recombinant

[4] = target: T3, His-TEV LRRC4B; assay: competition ELISA (dissociation of LRRC4B-PTPRF complex); details: chain shown with the change; read at the highest FAM19A5 concentration, about 1e4 nM; signal is PTPRF remaining bound to His-TEV LRRC4B, so a lower OD means more displacement by FAM19A5 …; parent: est. 0.16; read off a plot
T3 chain: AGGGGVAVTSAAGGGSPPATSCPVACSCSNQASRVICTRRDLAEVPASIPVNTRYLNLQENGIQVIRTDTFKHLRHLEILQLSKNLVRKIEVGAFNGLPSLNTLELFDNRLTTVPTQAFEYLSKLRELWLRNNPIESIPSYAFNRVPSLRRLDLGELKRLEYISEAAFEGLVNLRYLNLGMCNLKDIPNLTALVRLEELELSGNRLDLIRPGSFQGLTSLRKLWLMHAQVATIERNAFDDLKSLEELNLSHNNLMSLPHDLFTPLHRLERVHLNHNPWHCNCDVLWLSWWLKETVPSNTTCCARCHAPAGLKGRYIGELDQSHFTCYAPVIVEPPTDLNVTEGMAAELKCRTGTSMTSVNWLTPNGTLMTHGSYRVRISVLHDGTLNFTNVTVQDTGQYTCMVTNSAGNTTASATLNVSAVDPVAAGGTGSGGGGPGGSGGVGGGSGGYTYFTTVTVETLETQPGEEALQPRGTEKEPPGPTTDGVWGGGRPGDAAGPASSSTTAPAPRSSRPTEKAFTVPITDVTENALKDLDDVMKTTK

T2 sequence (Q7Z5A7 44-132): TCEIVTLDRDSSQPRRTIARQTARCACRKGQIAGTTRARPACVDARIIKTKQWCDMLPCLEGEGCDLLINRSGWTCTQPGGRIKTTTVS

Molecule: recombinant FAM19A5 (family with sequence similarity 19 member A5) (from UniProt Q7Z5A7 44-132) (natural protein)
EC50 [1]: 0.41 nM | IC50 [2]: 281 nM

B2: recombinant FAM19A5 (family with sequence similarity 19 member A5), Q7Z5A7 R58A; R59A; R125A; K127A (protein)
chain: TCEIVTLDRDSSQPAATIARQTARCACRKGQIAGTTRARPACVDARIIKTKQWCDMLPCLEGEGCDLLINRSGWTCTQPGGAIATTTVS
response [4]: 0.52 OD (450 nm)

The next lines start with the values.

EC50 [1]: 0.595 nM
Molecule: MT FAM19A5 (R58A, R59A) (from UniProt Q7Z5A7 44-132) (natural protein)

IC50 [3]: 8.1 nM
B1: LRRC4B(453–576)-hFc (Fc fusion, UniProt Q9NT99 453-576, looked up)
chain: VSAVDPVAAGGTGSGGGGPGGSGGVGGGSGGYTYFTTVTVETLETQPGEEALQPRGTEKEPPGPTTDGVWGGGRPGDAAGPASSSTTAPAPRSSRPTEKAFTVPITDVTENALKDLDDVMKTTK
notes: also called WT FB-containing protein; FB protein; source: recombinant

From paper PMC12281766, “Inhibition of FAM19A5 reverses synaptic loss and cognitive decline in mouse models of Alzheimer’s disease” (Alzheimer's Research & Therapy, 2025)
